Experimental data reported in patent US20150313988.
Positions count from the first letter of the chain named. Numbers in names are those of the source.

T1: RLRGG-AMC, C-terminal peptide motif of Ub and ISG15 coupled to aminomethylcoumarin
T1 chain: RLRGG

B1: EAV nsp2-3 polyprotein with N-terminal HA tag, PLP2 mutant I353R (protein)
chain: GYNPPGDGACGYRCLAFMNGATVVSAGCSSDLWCDDELAYRVFQLSPTFTVTIPGGRVCPNAKYAMICDKQHWRVKRAKGVGLCLDESCFRGRCNCQRMSGPPPAPVSAAVLDHILEAATFGNVRVVTPEGQPRPVPAPRVRPSANSSGDVKDPAPVPPVPKPRTKLATPNPTQAPIPAPRTRLQGASTQEPLASAGVASDSAPKWRVAKTVYSSAERFRTELVQRARSVGDVLVQALPLKTPAVQRYTMTLKMMRSRFSWHCDVWYPLAVIACLLPIWPSLALLLSFAIGLIPSVGNNVVLTALLVSSANYVASMDHQCEGAACLALLEEEHYYRAVRWRPITGALSLVLNLLGQVGYVARSTFDAAYVPCTVFDLCSFAILYLCRNRCWRCFGRCVRVGPATHVLGSTGQRVSKLALIDLCDHFSKPTIDVVGMATGWSGCYTGTAAMERQCASTVDPHSFDQKKAGATVYLTPPVNSGSALQCLNVMWKRPIGSTVLGEQTGAVVTAVKSISFSPPCCVSTTLPTRPGVTVVDHALYNRLTASGVDPALLRVGQGDFLKLNPGFRLIGGWIYGICYFVLVVVSTFTCLPIKCGIGTRDPFCRRVFSVPVTKTQEHCHAGMCASAEGISLDSLGLTQLQSYWIAAVTSGLVILLVCHRLAISALDLLTLASPLVLLVFPWASVGLLLACSLAGAAVKIQLLATLFVNLFFPQATLVTMGYWACVAALAVYSLMGLRVKVNVPMCVTPAHFLLLARSAGQSREQMLRVSAAAPTNSLLGVARDCYVTGTTRLYIPKEGGMVFE
B2: EAV nsp2-3 polyprotein with N-terminal HA tag, PLP2 mutant T312A (protein)
chain: B1 chain with T52A, R93I
B3: EAV PLP2 domain (residues 261-392 of EAV pp1a) carrying a C-terminal HIS6 purification tag, wild-type (protein)
chain: GYNPPGDGACGYRCLAFMNGATVVSAGCSSDLWCDDELAYRVFQLSPTFTVTIPGGRVCPNAKYAMICDKQHWRVKRAKGVGLCLDESCFRGICNCQRMSGPPPAPVSAAVLDHILEAATFGNVRVVTPEGQ
B4: EAV PLP2 domain I353R mutant enzyme (protein)
chain: B3 chain with I93R

What was measured:
[1] = target: FLAG-tagged ubiquitin, P0CG47
[2] = target: ubiquitin-aminomethylcoumarin, P0CG47
[3] = target: T1, RLRGG-AMC, C-terminal peptide motif of …

Sequence of ubiquitin-aminomethylcoumarin, P0CG47 (P0CG47 whole entry, looked up): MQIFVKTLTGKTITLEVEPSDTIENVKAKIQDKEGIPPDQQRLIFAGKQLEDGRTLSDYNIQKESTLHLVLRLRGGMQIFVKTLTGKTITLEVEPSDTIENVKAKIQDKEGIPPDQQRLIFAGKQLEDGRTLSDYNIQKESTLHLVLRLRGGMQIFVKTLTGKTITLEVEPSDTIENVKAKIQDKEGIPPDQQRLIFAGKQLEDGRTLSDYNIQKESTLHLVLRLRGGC
Sequence of FLAG-tagged ubiquitin, P0CG47 (P0CG47 whole entry, looked up): as above

Row | Protein | density of the alpha-flag lane (remaining ubiquitin conjugates) [1] | kcat/KM [2] [M⁻¹ s⁻¹] | kcat/KM [3] [M⁻¹ s⁻¹] | kcat/KM relative to wild type [2]
1 | B1 | shows a density of the alpha-flag lane that is about twice as high as that of the T312A lane | – | – | –
2 | B2 | a mutant such as T312A already shows a level of DUB-activity that leads to a significantly denser alpha-flag lane, which represents the amount of remaining ubiquitin conjugates, than that of the wild-type virus | – | – | –
3 | B3 | – | 21000 ± 2000 | 48 ± 8 | –
4 | B4 | – | 1100 ± 100 | 71 ± 8 | the kcat/KM value for Ub-AMC of the mutant I353R is 20 times lower than that of the wild-type virus
